The results in this text go back to US20190106501A1 (FRED HUTCHINSON CANCER RESEARCH CENTER, published 2019).

This assay deals with T1, CD20 (human, UniProt P11836 1-297).
T1 sequence (looked up): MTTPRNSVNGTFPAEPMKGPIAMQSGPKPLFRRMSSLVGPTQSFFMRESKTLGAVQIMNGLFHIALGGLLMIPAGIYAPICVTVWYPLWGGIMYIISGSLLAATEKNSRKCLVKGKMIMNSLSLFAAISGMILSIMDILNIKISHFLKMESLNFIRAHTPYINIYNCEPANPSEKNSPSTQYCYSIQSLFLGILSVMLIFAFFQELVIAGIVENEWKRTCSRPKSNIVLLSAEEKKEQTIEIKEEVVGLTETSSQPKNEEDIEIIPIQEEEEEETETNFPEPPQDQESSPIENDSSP
Description: cell-based or functional assay.

Some results are limits rather than exact numbers.

B1: rituximab (antibody, V domains shown)
VH: QVQLQQPGAELVKPGASVKMSCKASGYTFTSYNMHWVKQTPGRGLEWIGAIYPGNGDTSYNQKFKGKATLTADKSSSTAYMQLSSLTSEDSAVYYCARSTYYGGDWYFNVWGAGTTVTVSA
VL: QIVLSQSPAILSASPGEKVTMTCRASSSVSYIHWFQQKPGSSPKPWIYATSNLASGVPVRFSGSGSGTSYSLTISRVEAEDAATYYCQQWTSNPPTFGGGTKLEIK
In the case of B1, the “cell size (forward scatter) of CAR T cells after stimulation with Raji, Daudi or Rec-1 cells pre-incubated with rituximab, relative to no rituximab” value was above 85%; the “cell size (forward scatter) of CAR T cells incubated with FL-18 cells at 200 µg/ml rituximab, relative to control” value worked out at 73%; the “proliferation (CFSE dilution) of Leu16-28-BB-z-tEGFR CAR T cells with Raji, Daudi, Rec-1, FL-18 targets, rituximab up to 200 µg/ml, relative to no rituximab” value is above 96%.
